{
  "source": "the RNAGym collection of RNA variant scans (doi:10.7554/elife.80360)",
  "parents": {"B1": {"name": "Twister Ribozyme (parent)", "chain": "AACACUGCCAAUGCCGGUCCCAAGCCCGGAUAAAAGUGGAGGGGGCGG"}},
  "data": [
    {"variants_of": "B1", "assay": "self-cleavage, relative activity (ratio to wild type); higher = more cleavage; co-transcriptional", "values": [
      {"variant": "A10G A34G", "self-cleavage": 0.888},
      {"variant": "C9A G47C", "self-cleavage": 0.221},
      {"variant": "C9A G47U", "self-cleavage": 0.244},
      {"variant": "C9A G47A", "self-cleavage": 0.336},
      {"variant": "C9U G28A", "self-cleavage": 0.562},
      {"variant": "C9U G28U", "self-cleavage": 0.504},
      {"variant": "A10G G16A", "self-cleavage": 1.13},
      {"variant": "C9U A23G", "self-cleavage": 0.0717},
      {"variant": "C9U A23U", "self-cleavage": 0.0746},
      {"variant": "C9G C19G", "self-cleavage": 0.073},
      {"variant": "C9G C19U", "self-cleavage": 0.144},
      {"variant": "C9G C19A", "self-cleavage": 0.0927},
      {"variant": "A10C U37G", "self-cleavage": 0.692},
      {"variant": "A10C U37A", "self-cleavage": 0.881},
      {"variant": "A10G C14A", "self-cleavage": 0.975},
      {"variant": "C8U U31C", "self-cleavage": 0.713},
      {"variant": "C9U C19U", "self-cleavage": 0.226},
      {"variant": "C9U C19A", "self-cleavage": 0.0695},
      {"variant": "C8U G39U", "self-cleavage": 0.136},
      {"variant": "C8U G39A", "self-cleavage": 0.161},
      {"variant": "C9A G43C", "self-cleavage": 0.0978},
      {"variant": "C9A A40U", "self-cleavage": 0.119},
      {"variant": "C9A A40C", "self-cleavage": 0.108},
      {"variant": "A10G G47U", "self-cleavage": 1.01},
      {"variant": "C9A C15G", "self-cleavage": 0.0772},
      {"variant": "A10C G17C", "self-cleavage": 0.125},
      {"variant": "A10C G17A", "self-cleavage": 0.391},
      {"variant": "A10C G17U", "self-cleavage": 0.408},
      {"variant": "A10C G47A", "self-cleavage": 0.834},
      {"variant": "C8U C20A", "self-cleavage": 0.0588},
      {"variant": "A10C C46A", "self-cleavage": 0.898},
      {"variant": "A10C C46U", "self-cleavage": 0.839},
      {"variant": "C9G G36A", "self-cleavage": 0.204},
      {"variant": "A10G A30G", "self-cleavage": 0.897},
      {"variant": "A10G C15U", "self-cleavage": 0.902},
      {"variant": "C9A A11U", "self-cleavage": 0.767},
      {"variant": "C9A A11C", "self-cleavage": 1.03},
      {"variant": "C9A A11G", "self-cleavage": 0.735},
      {"variant": "C9G U37A", "self-cleavage": 0.208},
      {"variant": "C9G U37C", "self-cleavage": 0.156},
      {"variant": "C9G G24A", "self-cleavage": 0.0902},
      {"variant": "C9G C20G", "self-cleavage": 0.0438},
      {"variant": "C9G C20A", "self-cleavage": 0.0864},
      {"variant": "C9A G39C", "self-cleavage": 0.119},
      {"variant": "C9U C46U", "self-cleavage": 0.729},
      {"variant": "C9G G38U", "self-cleavage": 0.387},
      {"variant": "C8U G48U", "self-cleavage": 0.678},
      {"variant": "A10G A11C", "self-cleavage": 0.801},
      {"variant": "A10G A11U", "self-cleavage": 1.09},
      {"variant": "C9G C14G", "self-cleavage": 0.0866},
      {"variant": "C8U C21G", "self-cleavage": 0.0658},
      {"variant": "C8U C21U", "self-cleavage": 0.0732},
      {"variant": "C9A G13U", "self-cleavage": 0.927},
      {"variant": "C9A C46G", "self-cleavage": 0.59},
      {"variant": "A10G C21U", "self-cleavage": 0.162},
      {"variant": "C9A U12G", "self-cleavage": 0.417},
      {"variant": "C9A U12A", "self-cleavage": 0.916},
      {"variant": "A10C G39A", "self-cleavage": 0.601},
      {"variant": "A10C G39C", "self-cleavage": 0.172},
      {"variant": "A10G C26G", "self-cleavage": 0.354},
      {"variant": "C9U G16A", "self-cleavage": 0.405},
      {"variant": "C9U G16U", "self-cleavage": 0.373},
      {"variant": "C9G U31G", "self-cleavage": 0.781},
      {"variant": "C9G U31C", "self-cleavage": 0.722},
      {"variant": "C9G C21A", "self-cleavage": 0.0451},
      {"variant": "A10U A23U", "self-cleavage": 0.632},
      {"variant": "C9G C15G", "self-cleavage": 0.0512},
      {"variant": "C9G C15A", "self-cleavage": 0.278},
      {"variant": "C9U C27U", "self-cleavage": 0.37},
      {"variant": "C9U C27G", "self-cleavage": 0.0911},
      {"variant": "A10C A33U", "self-cleavage": 1.08},
      {"variant": "A10C A33G", "self-cleavage": 1.04},
      {"variant": "A10G G29A", "self-cleavage": 1.09},
      {"variant": "C9G G45A", "self-cleavage": 0.444},
      {"variant": "C9U C21A", "self-cleavage": 0.0683},
      {"variant": "C9U G44U", "self-cleavage": 0.595},
      {"variant": "C9U G44A", "self-cleavage": 0.72},
      {"variant": "C9U G44C", "self-cleavage": 0.677},
      {"variant": "C9G A30G", "self-cleavage": 0.791},
      {"variant": "A10C G29A", "self-cleavage": 0.86},
      {"variant": "A10C G29C", "self-cleavage": 0.845},
      {"variant": "A10C G29U", "self-cleavage": 0.912},
      {"variant": "C9A A34C", "self-cleavage": 0.18},
      {"variant": "A10C A22G", "self-cleavage": 0.256},
      {"variant": "A10C A22U", "self-cleavage": 0.78},
      {"variant": "C8U A35U", "self-cleavage": 0.756},
      {"variant": "C8U A35C", "self-cleavage": 0.547},
      {"variant": "C9A G24C", "self-cleavage": 0.119},
      {"variant": "A10U A22G", "self-cleavage": 0.291},
      {"variant": "A10U A22U", "self-cleavage": 0.829},
      {"variant": "C8U G41A", "self-cleavage": 0.112},
      {"variant": "C8U A40G", "self-cleavage": 0.172},
      {"variant": "C9A C14G", "self-cleavage": 0.0661},
      {"variant": "A10C G13A", "self-cleavage": 0.764},
      {"variant": "A10C G13C", "self-cleavage": 0.408},
      {"variant": "A10C C15U", "self-cleavage": 0.942},
      {"variant": "A10C C15A", "self-cleavage": 0.493},
      {"variant": "A10C C15G", "self-cleavage": 0.0331},
      {"variant": "A10C G28U", "self-cleavage": 0.811},
      {"variant": "C9G A11G", "self-cleavage": 0.715},
      {"variant": "C9G A11U", "self-cleavage": 0.985},
      {"variant": "C9A A32U", "self-cleavage": 0.558},
      {"variant": "A10C U12C", "self-cleavage": 0.929},
      {"variant": "A10C U12A", "self-cleavage": 1.24},
      {"variant": "C9U G39A", "self-cleavage": 0.139},
      {"variant": "C9U G47A", "self-cleavage": 0.425},
      {"variant": "C9U G47U", "self-cleavage": 0.269},
      {"variant": "C9U G45C", "self-cleavage": 0.157},
      {"variant": "C9G G44A", "self-cleavage": 0.731},
      {"variant": "C9G G44U", "self-cleavage": 0.427},
      {"variant": "C9A C26A", "self-cleavage": 0.11},
      {"variant": "C9A C26G", "self-cleavage": 0.0708},
      {"variant": "A10C G16U", "self-cleavage": 0.677},
      {"variant": "A10C G24A", "self-cleavage": 0.0991},
      {"variant": "A10C G24U", "self-cleavage": 0.0955},
      {"variant": "C9U U12C", "self-cleavage": 0.501},
      {"variant": "A10C G42U", "self-cleavage": 0.26},
      {"variant": "A10C A40C", "self-cleavage": 0.253},
      {"variant": "A10C C27U", "self-cleavage": 0.932},
      {"variant": "C9G A23C", "self-cleavage": 0.0567},
      {"variant": "C8U A34G", "self-cleavage": 0.582},
      {"variant": "C8U A34C", "self-cleavage": 0.134},
      {"variant": "C8U A34U", "self-cleavage": 0.308},
      {"variant": "C9G A10G", "self-cleavage": 0.656},
      {"variant": "C9G A10C", "self-cleavage": 0.857},
      {"variant": "C9G A10U", "self-cleavage": 0.859},
      {"variant": "C9U A40C", "self-cleavage": 0.161},
      {"variant": "C9U A40G", "self-cleavage": 0.14},
      {"variant": "C9U A40U", "self-cleavage": 0.162},
      {"variant": "A10C C26A", "self-cleavage": 0.664},
      {"variant": "A10C C26G", "self-cleavage": 0.175},
      {"variant": "C9G G39A", "self-cleavage": 0.137},
      {"variant": "C9G G39U", "self-cleavage": 0.147},
      {"variant": "A10C U18A", "self-cleavage": 0.455},
      {"variant": "A10C U18G", "self-cleavage": 0.0601},
      {"variant": "C9U G41C", "self-cleavage": 0.128},
      {"variant": "A10C G36U", "self-cleavage": 0.722},
      {"variant": "A10C G36A", "self-cleavage": 0.794},
      {"variant": "C9U G36C", "self-cleavage": 0.12},
      {"variant": "A10G A35G", "self-cleavage": 0.92},
      {"variant": "C9A G17A", "self-cleavage": 0.109},
      {"variant": "C9A U31C", "self-cleavage": 0.765},
      {"variant": "C9A U31G", "self-cleavage": 0.777},
      {"variant": "C8U C25A", "self-cleavage": 0.0853},
      {"variant": "C8U C25U", "self-cleavage": 0.195},
      {"variant": "C8U C25G", "self-cleavage": 0.1},
      {"variant": "C9A A23C", "self-cleavage": 0.0979},
      {"variant": "C9A A23U", "self-cleavage": 0.066},
      {"variant": "C9U C20A", "self-cleavage": 0.0526},
      {"variant": "C9U C20U", "self-cleavage": 0.264},
      {"variant": "C9U C20G", "self-cleavage": 0.0672},
      {"variant": "A10G A32C", "self-cleavage": 1.02},
      {"variant": "A10C A35C", "self-cleavage": 1.08},
      {"variant": "A10C A35U", "self-cleavage": 1.04},
      {"variant": "C9G G42U", "self-cleavage": 0.119},
      {"variant": "A10G A23U", "self-cleavage": 0.92},
      {"variant": "C9U U18A", "self-cleavage": 0.0726},
      {"variant": "C9U U18C", "self-cleavage": 0.0748},
      {"variant": "C9U U18G", "self-cleavage": 0.059},
      {"variant": "A10G U18C", "self-cleavage": 0.807},
      {"variant": "A10C G38C", "self-cleavage": 0.813},
      {"variant": "A10C G38U", "self-cleavage": 0.832},
      {"variant": "C9A G41U", "self-cleavage": 0.179},
      {"variant": "C9U C15G", "self-cleavage": 0.0427},
      {"variant": "C8U C9G", "self-cleavage": 0.158},
      {"variant": "C8U C9U", "self-cleavage": 0.0747},
      {"variant": "A10G G48C", "self-cleavage": 1.2}
    ]}
  ]
}
